Reference: the supplement of paper PMC12042874
± gives the uncertainty stated by the source.

assay: amyloid nucleation score (Sup35N fusion, yeast selection) (log enrichment); library NNK2; higher = more nucleation; inactive = no reads after selection
How it was run: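 On medium lacking adenine and uracil, psi-negative yeast expressing peptides of 20 random codons fused to Sup35N were grown 7 days at 30°C after a 24-hour induction with 100 μM copper sulfate. Illumina sequencing of input and output plasmid inserts gave the reads, and sequences under 100 input reads were excluded. The nucleation score is the DiMSum log enrichment of output over input reads, centred on the mode score of non-aggregating sequences.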

Substance | amyloid nucleation score
SLCEFMREGCLLTYWFNKCE | -0.838 ± 0.64
SLCGRRFNTDEPLLETRSSL | 0.817 ± 0.51
SLDGGPAVVEEATFRGSMAF | -0.567 ± 1.1
SLELA | 0.472 ± 0.8
SLETFNVTPCRDVT | -0.633 ± 1.1
SLFYPLFLMLGVAYEGSFSW | -1.1 ± 0.61
SLFYVTLAPTSWICGTARC | 1.43 ± 0.41
SLISKEFVGLVGGET | -0.388 ± 0.25
SLKCDCYFSTGHI | inactive
SLKEIECFSQ | inactive
SLLGLNFCSMLAIL | 3.23 ± 0.075
SLLNTGRYCWC | 1.05 ± 0.35
SLLTCLSGMHGWVSIT | -0.13 ± 0.27
SLMIHGHLFRIRVRSLRGRI | -0.714 ± 0.76
SLNAL | -0.296 ± 0.49
SLNFFIMSKSSTGVSSFLYV | 6.483 ± 0.038
SLNNIRLLTHYLDFGVRNLA | 3.04 ± 0.092
SLPAENSFIEF | -1.25 ± 0.39
SLQSDQSADFREDKGRSKAE | 0.898 ± 0.32
SLSCGLYGYMTNSCSYVHRT | 4.22 ± 0.053
SLSLQGLSFMPFCGRSGSVV | inactive
SLSRRQLTIPPVTTRVIQSH | 0.637 ± 0.25

Substance | amyloid nucleation score
SLTMYGSIEWLNNVSAILRH | 0.541 ± 0.66
SLTYRYVHVLC | 5.86 ± 0.04
SLWVYLVKMVEIFSLKD | -0.531 ± 0.55
SLYFVWSCLLGILKVMPTFN | -1.18 ± 0.64
SMKNK | 0.185 ± 0.4
SMLLVAFWWKGGWTRISPCQ | 0.762 ± 0.23
SMQLDSFCVICGWFALVGLV | 6.67 ± 0.052
SMSSTSFSQWSMAWLEGRMA | 2.93 ± 0.078
SMSYDRWKAKS | -0.446 ± 0.48
SMYSYHHSYRSDTKTSNFFW | 3.4 ± 0.072
SNCRLGKGYYNCF | -0.833 ± 0.41
SNCSKCVKVYTSPCLWSLCG | 3.46 ± 0.083
SNCYLKRSYGFRDIITKIRY | 1.24 ± 0.14
SNEIQNII | 0.57 ± 0.81
SNGVAWQCNGNSYRIFCDTS | 7.522 ± 0.069
SNLMISTCEQMGRCVGDDAV | -0.067 ± 0.36
SNLNPVHSDLLMYEMPCNLT | -0.492 ± 1.1
SNMNNPRHLCAKLSKRQMSY | inactive
SNNFFNGMICSLFAGGC | 7.55 ± 0.082
SNRLRVVQ | -0.069 ± 0.32
SNVRWKRGYGDNTILGGSLT | 1.51 ± 0.31
SNYLAPYNNSDATYCG | -0.361 ± 0.54

Substance | amyloid nucleation score
SNYSPGFLCWALESSTNM | -0.99 ± 1.1
SPAWRNGDPRKKATPTHTGI | 0.004 ± 1.1
SPDRPPSVVVVDRSGDVMVC | 1.57 ± 0.15
SPLASYIAVLWGNVR | -0.515 ± 1.1
SPLRALLTHVWRKQHTYFSN | 3.14 ± 0.08
SPVICRVRGGLFINMSEYNV | inactive
SPVVKFRLLQSINLTHCY | 4.47 ± 0.05
SPWVNYYPSRVYRNVNACLF | -0.339 ± 0.35
SQCARKYVVASVSMLTDVTH | 1.13 ± 0.31
SQHSRHRRQSVVYYAVDGVE | 1.21 ± 0.31
SQMSGSFRRSNGWIAV | inactive
SQNETFFKMCVELN | 0.165 ± 0.54
SQRLIRWNCLNAGTIMPSVV | 0.089 ± 1.1
SQVERVQFTGIRKWYGAGRS | 4.57 ± 0.072
SQVTISHSNEHMVGACAVYR | -0.456 ± 0.54
SQWSCVRTSFGPPMYKWFDL | 5.655 ± 0.045
SRAAPDINS | 0.251 ± 0.25
SRACVLWKGLRRAANTC | 0.984 ± 0.27
SRCEVNTWLLILSGGITPMN | 0.722 ± 0.37
SRDVLVLIGYFSCGVIDSAL | 5.16 ± 0.082
SREVFDVLGKFFCSPQDRVV | 0.294 ± 0.8
SRFIAWSFT | -0.038 ± 1.1

Substance | amyloid nucleation score
SRFVLRFSRGLEGRTSSDMR | 0.294 ± 0.42
SRICIFDDCNRRLARYWGLR | 0.057 ± 0.76
SRIFVLYYSWDAWNSWGDVV | 0.602 ± 0.6
SRIGLYIKCVVLDWRELNLS | 0.206 ± 0.55
SRKFSFAYFTRFFYVLVLIV | inactive
SRKNRSRVSTTISR | -0.731 ± 0.3
SRKPNQINNRSRNSMLGARR | -0.162 ± 0.27
SRKTIVGFYGVPGVRYACIW | inactive
SRLNNLRYLYYLTGFRSLMT | inactive
SRMAWYFLLGYHLMMEKVHL | inactive
SRMRVLFALLQDFQSHVGSV | 1.36 ± 0.11
SRNFVPVHRCVGGF | inactive
SRQRVMLLC | inactive
SRTRCDIWFNLRTFMVRVRK | -0.46 ± 1.1
SRVTYMRATDSMTTVVFWGV | 5.31 ± 0.064
SSAGC | -1.23 ± 0.55
SSASTRDEKGGSGALERERC | -0.243 ± 1.1
SSFFLTQSKSFGYA | inactive
SSFSIMLCGGVIFCIVAN | 5.02 ± 0.078
